Reference: article PMC4865440

Molecular target: recombinant gp120 from HIV-1 strain IIIB (HIV-1 strain IIIB) (UniProt P04578)

| Substance | EC50 of whole-cell HIV neutralization assay (XTT viability of CEM-SS cells challenged with HIV-1RF), purified ^ECGRFT [nM] | EC50 of whole-cell HIV neutralization assay (XTT viability of CEM-SS cells challenged with HIV-1RF), purified ^OSGRFT [nM] |
| --- | --- | --- |
| griffithsin produced in Escherichia coli (^ECGRFT) (from UniProt P84801 1-121) (natural protein) | 0.33 | – |
| griffithsin produced in rice endosperm (^OSGRFT), His6-tagged (from UniProt P84801 1-121) (natural protein) | – | 0.27 |
